Assay results as given in patent publication US7271245B2, “Methods and compositions for inhibition of metastasis” (The Scripps Research Institute, priority 2004, dated 2007).

Columns and labels:
αvβ1 = target: T1, αvβ1 (Homo sapiens, UniProt P05556+P06756); test: Flow cytometry, binding to other RGD-recognizing integrins
T1 construct: UCLA-P3 lung adenocarcinoma cells (αv integrins, but no αvβ3); endogenous in cells; host or cells: UCLA-P3 human lung adenocarcinoma cells
Experimental: (§1) Flow cytometry. scFv binding to human tumor cells was analyzed by flow cytometry, initially with cloned scFv phage and then with purified scFv protein. Per sample, 2×10^5 tumor cells were blocked with goat serum and incubated either with scFv phage (2-5×10^10) (1 h at RT) followed by mouse anti-M13 mAb (Serotec) (30 min on ice) and goat FITC-anti mouse (Pierce) (30 min on ice), or with purified scFv (1.25 to 40 μg/ml, routinely 10 to 15 μg/ml) (45 min on ice), followed by mouse anti-FLAG mAb M2 (Sigma) (30 min on ice) and goat FITC-anti mouse. Binding/washing buffer was TBS with or without divalent cations (1 mM Ca^2+, 1 mM Mg^2+, 0.2 mM Mn^2+). Alternatively, tumor cells were washed in 10 ml of plasma (prepared freshly from human blood anticoagulated with 50 nM D-Phe-D-Pro-D-arginyl chloromethyl ketone, PPACK, Felding-Habermann et al., J. Biol. Chem. 271: 5892-5900, 1996), resuspended in plasma and then incubated sequentially, without washing, with purified scFv (45 min on ice), followed by anti-FLAG M2 (30 min on ice) and FITC-anti mouse (30 min on ice). All samples were counter stained with propidium iodide (PI) and analyzed on a Becton-Dickinson FACScan, with live gate set to exclude PI positive cells.
(§2) To generate therapeutic reagents that specifically react with activated αvβ3, a phage display library of single chain antibody fragments (scFv) was exploited. This library was derived from cancer patient blood lymphocyte cDNA libraries and allowed us to test the hypothesis that the expressed immune repertoire contains antibodies that recognize integrin αvβ3, and distinguish between its activated and non-activated forms. Mao et al., Proc. Natl. Acad. Sci. U.S.A 96: 6953-6958, 1999. A subtractive panning approach was designed based on variants of MDA-MB 435 human breast cancer cells. […] Apparently, these cells are selected during metastasis, as variant cells isolated from lung and bone metastases in immune deficient mice express constitutively activated αvβ3. To establish a cell population that uniformly expresses non-activated αvβ3, MDA-MB 435 parental cells were cloned by limiting dilution, and clones tested for αvβ3 functionality. […] A cell line, MDA-MB 435 Lung-Lung, was established which expressed αvβ3 in a constitutively activated form. This variant stems from a lung metastase of an immune deficient mouse whose mammary fat pad had been injected with parental MDA-MB 435 cells. […] After 5 rounds of subtracting the phage library on Parent Combo cells and panning on Lung-Lung cells, scFv clones were analyzed by flow cytometry for their ability to bind integrin αvβ3 on human tumor cells, and to distinguish between the activated and non-activated forms of the receptor (FIG. 1). […]

alpha IIb beta 3 = target: T2, alpha IIb beta 3 (Homo sapiens, UniProt P05106+P08514); test: as above
T2 construct: M21-LIIb cells (αIIbβ3, no αv integrin); expressed in transfected cells; host or cells: M21-LIIb human melanoma cells
Experimental: as §1, §2

integrin αvβ5 = target: T3, integrin αvβ5 (Homo sapiens, UniProt P06756+P18084); test: as above
T3 construct: UCLA-P3 lung adenocarcinoma cells (αv integrins, but no αvβ3); endogenous in cells; host or cells: UCLA-P3 human lung adenocarcinoma cells
T3 sequence (P06756 31-889 limits assumed): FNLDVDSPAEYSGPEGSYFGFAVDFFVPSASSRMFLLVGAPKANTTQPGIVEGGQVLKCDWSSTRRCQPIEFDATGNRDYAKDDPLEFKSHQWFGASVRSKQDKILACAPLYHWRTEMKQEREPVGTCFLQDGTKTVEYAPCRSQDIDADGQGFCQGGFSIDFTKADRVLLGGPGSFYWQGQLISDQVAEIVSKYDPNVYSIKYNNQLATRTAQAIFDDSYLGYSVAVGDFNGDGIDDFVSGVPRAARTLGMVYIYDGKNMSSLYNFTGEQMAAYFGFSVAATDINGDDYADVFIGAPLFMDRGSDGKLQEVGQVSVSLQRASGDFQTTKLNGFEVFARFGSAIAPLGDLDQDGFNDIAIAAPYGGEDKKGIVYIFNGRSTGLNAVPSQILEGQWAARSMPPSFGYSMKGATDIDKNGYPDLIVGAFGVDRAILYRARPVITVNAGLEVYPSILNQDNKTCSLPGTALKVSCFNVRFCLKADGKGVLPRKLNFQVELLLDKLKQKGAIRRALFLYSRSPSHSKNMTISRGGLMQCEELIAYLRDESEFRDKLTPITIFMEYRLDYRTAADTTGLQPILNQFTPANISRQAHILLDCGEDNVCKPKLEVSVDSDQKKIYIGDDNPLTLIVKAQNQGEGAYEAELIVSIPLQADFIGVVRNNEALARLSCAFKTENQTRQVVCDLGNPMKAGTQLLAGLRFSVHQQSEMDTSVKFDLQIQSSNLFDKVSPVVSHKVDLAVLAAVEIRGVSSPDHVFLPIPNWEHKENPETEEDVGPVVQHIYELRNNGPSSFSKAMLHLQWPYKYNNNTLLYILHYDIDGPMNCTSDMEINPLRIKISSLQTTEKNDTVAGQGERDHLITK
T3 sequence (P06756 891-1048 partner limits assumed): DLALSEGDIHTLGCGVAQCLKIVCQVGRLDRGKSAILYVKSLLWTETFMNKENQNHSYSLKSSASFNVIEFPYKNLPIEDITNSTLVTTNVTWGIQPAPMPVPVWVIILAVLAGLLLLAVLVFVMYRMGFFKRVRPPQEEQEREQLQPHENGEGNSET
T3 sequence (P18084 24-799): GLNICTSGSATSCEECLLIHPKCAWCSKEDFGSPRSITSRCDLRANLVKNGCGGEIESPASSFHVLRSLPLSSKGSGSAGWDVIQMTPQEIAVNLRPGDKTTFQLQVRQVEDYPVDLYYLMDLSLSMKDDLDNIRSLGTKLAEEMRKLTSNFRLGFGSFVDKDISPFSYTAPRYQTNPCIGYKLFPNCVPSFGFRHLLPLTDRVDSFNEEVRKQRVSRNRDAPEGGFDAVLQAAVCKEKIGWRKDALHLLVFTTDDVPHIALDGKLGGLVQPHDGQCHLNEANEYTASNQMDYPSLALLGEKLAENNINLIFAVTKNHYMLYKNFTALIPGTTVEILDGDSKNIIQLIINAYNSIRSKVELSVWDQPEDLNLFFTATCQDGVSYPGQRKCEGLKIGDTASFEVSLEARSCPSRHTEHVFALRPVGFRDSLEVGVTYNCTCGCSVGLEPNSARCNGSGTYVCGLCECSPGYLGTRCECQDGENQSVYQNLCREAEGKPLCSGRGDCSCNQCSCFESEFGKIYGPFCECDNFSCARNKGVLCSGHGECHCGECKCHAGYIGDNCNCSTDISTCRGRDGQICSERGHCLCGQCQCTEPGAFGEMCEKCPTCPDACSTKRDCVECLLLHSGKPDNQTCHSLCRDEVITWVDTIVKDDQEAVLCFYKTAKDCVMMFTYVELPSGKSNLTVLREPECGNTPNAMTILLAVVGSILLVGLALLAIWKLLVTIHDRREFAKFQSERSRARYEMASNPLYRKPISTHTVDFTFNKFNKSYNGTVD
Experimental: as §1, §2

integrin αvβ3 = test: Flow cytometry, scFv binding to human tumor cell panel
Experimental: FIGS. 1A, 1B, 1C. Patient derived scFvs Bc-12 and Bc-15 recognize tumor cell integrin αvβ3 in a cation and activation dependent manner. Flow cytometric analyses in TBS with or without 1 mM Ca^2+, 1 mM Mg^2+, or 0.2 mM Mn^2+ as indicated. Binding of soluble scFv detected after incubation with anti-Flag M2 murine mAb followed by FITC-anti mouse F(ab′)2. (A) scFv binding to human melanoma cells (M21: αvβ3 plus other αv integrins) (M21-LIIb: αIIbβ3, no αv integrins) or lung adenocarcinoma cells (UCLA-P3: αv integrins, no β3 integrin). (B) scFv binding to M21 melanoma cells. (C) scFv binding to variants of MDA-MB 435 human breast cancer cells that lack (β^3−) or express αvβ3 either in a non-activated (β3WT, ParentCo) or activated form (β3D723R, Bone, Lung, and BMS metastatic cancer cells isolated from breast cancer patient blood).
as §1
To generate therapeutic reagents that specifically react with activated αvβ3, a phage display library of single chain antibody fragments (scFv) was exploited. This library was derived from cancer patient blood lymphocyte cDNA libraries and allowed us to test the hypothesis that the expressed immune repertoire contains antibodies that recognize integrin αvβ3, and distinguish between its activated and non-activated forms. Mao et al., Proc. Natl. Acad. Sci. U.S.A 96: 6953-6958, 1999. A subtractive panning approach was designed based on variants of MDA-MB 435 human breast cancer cells. […] Apparently, these cells are selected during metastasis, as variant cells isolated from lung and bone metastases in immune deficient mice express constitutively activated αvβ3. To establish a cell population that uniformly expresses non-activated αvβ3, MDA-MB 435 parental cells were cloned by limiting dilution, and clones tested for αvβ3 functionality. […] A cell line, MDA-MB 435 Lung-Lung, was established which expressed αvβ3 in a constitutively activated form. This variant stems from a lung metastase of an immune deficient mouse whose mammary fat pad had been injected with parental MDA-MB 435 cells. Felding-Habermann et al., Proc. Natl. Acad. Sci. U.S.A 98: 1853-1858, 2001; Rolli et al., Proc. Natl. Acad. Sci. U.S.A 100: 9482-9487, 2003. To enrich for the ability to colonize the lung from the blood stream, the Lung variant was subsequently injected intravenously, and tumor cells cultured 3 weeks later from the excised lung. Parent Combo cells were used to subtract the scFv phage library to eliminate antibodies against antigens shared by the MDA-MB 435 cell variants. […]

T1 sequence (P06756 31-889 limits assumed): as the sequence (P06756 31-889 limits assumed) above
T1 sequence (P06756 891-1048 partner limits assumed): as the sequence (P06756 891-1048 partner limits assumed) above
T1 sequence (P05556 21-798): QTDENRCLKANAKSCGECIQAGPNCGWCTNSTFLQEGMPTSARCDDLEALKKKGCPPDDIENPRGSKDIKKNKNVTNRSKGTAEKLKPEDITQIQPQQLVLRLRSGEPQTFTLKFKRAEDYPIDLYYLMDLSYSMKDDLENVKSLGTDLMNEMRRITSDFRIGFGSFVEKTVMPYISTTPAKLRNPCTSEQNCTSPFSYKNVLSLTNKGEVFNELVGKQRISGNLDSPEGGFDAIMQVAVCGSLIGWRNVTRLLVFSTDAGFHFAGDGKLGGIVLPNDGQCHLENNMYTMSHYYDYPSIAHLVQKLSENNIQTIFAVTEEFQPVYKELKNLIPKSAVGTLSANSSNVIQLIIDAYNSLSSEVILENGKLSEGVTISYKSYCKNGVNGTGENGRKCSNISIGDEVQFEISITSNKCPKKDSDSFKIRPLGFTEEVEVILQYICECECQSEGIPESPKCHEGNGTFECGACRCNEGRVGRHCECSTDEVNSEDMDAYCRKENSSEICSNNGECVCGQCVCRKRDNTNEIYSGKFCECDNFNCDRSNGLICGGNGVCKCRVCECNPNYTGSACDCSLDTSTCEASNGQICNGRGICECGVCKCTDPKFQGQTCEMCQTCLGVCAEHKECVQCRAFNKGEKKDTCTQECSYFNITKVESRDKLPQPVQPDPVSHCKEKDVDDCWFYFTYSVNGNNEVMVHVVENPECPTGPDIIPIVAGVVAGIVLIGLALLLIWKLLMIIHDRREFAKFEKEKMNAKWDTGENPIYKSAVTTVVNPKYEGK

B1: Bc-12: patient derived human scFv antibody against activated αvβ3 with RGD motif in CDR-H3; cDNA ATCC PTA-6303 (protein)
scFv: MAQVQLVQSGAEVKKPGASVKVSCKASGYTFSNYGITWVRQAPGQGLEWMGWINNGNTHYAQKFQGRVTMTTDTSTSTAYMELRSLRSDDTAVYYCARDPRGDDEPYWGQGTLVTVSSGGGGSGGGGSGGGGSEIVLTQSPLSLPVTLGQPASISCRSSQNLVYSDGNTYLSWFQQRPGQSPRRLIYKVSNRDSGVPDRFSGSGSGTDFTLKISRVEAEDIGVYYCMQGTHWPPRTFGQGTKVEIKRGLGGLVDYKDDDDK
- binding to αvβ1 (αvβ1): do not bind
- binding to alpha IIb beta 3 (alpha IIb beta 3): do not bind
- binding to integrin αvβ5 (integrin αvβ5): do not bind
- binding in the presence of Mn2+ (integrin αvβ3; 0.2 mM Mn^2+): greatly enhanced
- binding in the presence of Mg2+ (integrin αvβ3; 1 mM Mg^2+, M21 cells): at the same level as Ca^2+
- effect of Ca2+ on Mn2+ enhanced binding (integrin αvβ3; Ca^2+ combined with Mn^2+, M21 cells): reduced the enhancing effect of Mn^2+
- reactivity with human tumor cells that express or lack αvβ3 (integrin αvβ3; M21, M21-LIIb, UCLA-P3 cells, flow cytometry): reacted only with cells expressing the αvβ3 heterodimer
- binding to M21-L cells (integrin αvβ3; M21-L cells (no αv integrins)): failed to bind
- cation requirement of binding (integrin αvβ3; TBS with or without divalent cations): showed a cation dependence
- binding in the presence of Ca2+ (integrin αvβ3; physiological Ca^2+ levels (1 mM)): measurable
- reactivity with M21-L4 cells (integrin αvβ3; αvβ3 expression restored by transfection): did react
